# Assay results from patent US20170210813A1 (Regeneron, published 2017).
# T1: Macaca fascicularis PDGFRb.mmh (Macaca fascicularis)
# T1 construct: Soluble monomeric construct; also called mfPDGFRb.mmh
# T1 chain: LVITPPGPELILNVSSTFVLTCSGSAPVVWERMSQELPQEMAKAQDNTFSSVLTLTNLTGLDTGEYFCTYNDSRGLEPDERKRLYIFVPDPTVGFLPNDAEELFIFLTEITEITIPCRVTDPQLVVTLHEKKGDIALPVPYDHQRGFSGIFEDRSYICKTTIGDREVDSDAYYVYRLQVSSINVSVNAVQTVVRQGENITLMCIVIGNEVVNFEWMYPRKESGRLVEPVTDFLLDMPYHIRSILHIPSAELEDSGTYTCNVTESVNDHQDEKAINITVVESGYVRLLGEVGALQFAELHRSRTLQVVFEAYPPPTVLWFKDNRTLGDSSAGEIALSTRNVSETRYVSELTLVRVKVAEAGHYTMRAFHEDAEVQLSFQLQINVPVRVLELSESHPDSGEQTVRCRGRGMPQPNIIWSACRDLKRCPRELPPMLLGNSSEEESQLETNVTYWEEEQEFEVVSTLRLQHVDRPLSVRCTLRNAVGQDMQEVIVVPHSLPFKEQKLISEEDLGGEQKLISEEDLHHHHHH
# B1: H4H3374N (antibody, human IgG4, V domains shown)
# VH: QLQLQESGPGLVKPSETLSLTCTVSGGSITSSSYYWGWIRQPPGKGLEWIGSIYYRGSTNYNPSLKSRVTISVDSSKNQFYLKVSSVTAVDTAVYYCARQNGAARPSWFDPWGQGTLVTVSS
# VL: EIVLTQSPDTISLSPGERATLSCRASQSISSIYLAWYQQKPGQAPRLLIYGASSRVTGIPDRFSVSGSGTDFTLTISRLEPEDFAVYYCQHYGISPFTFGPGTKVDIR
# notes: human IgG4 Fc (H4H prefix)
# B2: H4H3094P (antibody, human IgG4, V domains shown)
# VH: EVQLVESGGGLVQPGGSLRLSCAASGFTFSSYWMSWVRQAPGKGLEWVANMNQDGSETHYVDSVKGRLSISRDNAKKSLFLHMNSLRAEDTAVYFCARDLVPPRQDDYYYYFGMDVWGHGTTVTVSS
# VL: DIQMTQSPSTLSASVGDRVTITCRASQSISDWLAWYQQKPGKAPKLLIFKASTLESGVPSRFSGSGSGTEFTLTISSLQPDDFATYYCQQYNSYSRTFGQGTKVEIK
# notes: also called H4H3394P
# B3: H4H3099S (antibody, human IgG4, V domains shown)
# VH: QITLKESGPTLVKPTQTLTLTCTFSGFSLTTTGVGVGWIRQPPGKALEWLALIYWNDLKRYSPSLKNRLTITKDTSRHQVVLTMTNMDPMDTATYYCAHRPLYYGSGSGWFDPWGPGTTVTVSS
# VL: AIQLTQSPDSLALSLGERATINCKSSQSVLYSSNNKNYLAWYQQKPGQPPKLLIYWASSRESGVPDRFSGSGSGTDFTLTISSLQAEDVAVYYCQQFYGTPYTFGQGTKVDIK
# notes: human IgG4 Fc (H4H prefix)
# Experiments:
# hPDGFRb.mmh [1] = target: T2, hPDGFRb.mmh (human, UniProt P09619 33-531); assay: Octet BLI cross-competition, 25 C; hPDGFRb.mmh on anti-Penta-His tips pre-saturated with mAb-1 H4H3094P (row 5)
# T2 construct: Soluble monomeric construct; also called soluble human PDGFR-beta.mmh
# In short: (§1)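 PDGFR-beta.mmh-coated sensor tips were saturated for 5 min with a first antibody at 50 μg/mL, then exposed to a second anti-PDGFR-beta antibody. Real-time binding of the second antibody to the pre-complexed receptor was monitored in HBST buffer, shaking at 1000 rpm.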
# [2] = target: T1, Macaca fascicularis PDGFRb.mmh; assay: SPR, mAb captured, 25 C
# Method: (§2) Antibodies, expressed as either mouse Fc (prefix H1M; H2M) or human Fc (prefix H4H), were captured on their respective anti-Fc sensor surfaces (Mab capture format). […] Kinetic association (kₐ) and dissociation (kd) rate constants were determined by processing and fitting the data to a 1:1 binding model using Scrubber 2.0 curve fitting software.
# hPDGFRb.mmh [3] = target: T2, hPDGFRb.mmh; assay: SPR, mAb captured, 25 C
# Method: as §2
# human PDGFRb.hFc [4] = target: T3, human PDGFRb.hFc (human); assay: SPR, mAb captured, 25 C
# T3 construct: Soluble dimeric construct with human Fc; also called hPDGFRb.hFc
# Method: as §2
# hPDGFRb.mmh [5] = target: T2, hPDGFRb.mmh; assay: Octet BLI cross-competition, 25 C; hPDGFRb.mmh on anti-Penta-His tips pre-saturated with mAb-1 H4H3310N (row 9)
# Method: (§3) A cross-competition assay was conducted to assess the ability of select antibodies to compete with one another for binding to human PDGFR-beta. […] Each PDGFR-beta.mmh-coated sensor tip was saturated for 5 min with a first anti-PDGFR-beta antibody (Mab #1; 50 μg/mL). Next, each sensor tip was saturated with a solution of a second anti-PDGFR-beta antibody (Mab #2). The real time response of Mab #2 binding to PDGR-beta.mmh pre-complexed with Mab #1 was then monitored. All assays were performed at 25° C. with a flow rate of 1000 rpm on an Octet RED384 biosensor in Octet HBST buffer according to manufacturer's instructions (ForteBio Corp., Menlo Park, Calif.). Results are illustrated in FIG. 2.
# [6] = target: T4, full length human PDGFR-beta on HEK293 cells (human, UniProt P09619 33-1106); assay: cell-based or functional assay
# [7] = target: T4, full length human PDGFR-beta on HEK293 …; assay: cell-based or functional assay; remark: listed apart in the source
# [8] = target: T1, Macaca fascicularis PDGFRb.mmh; assay: SPR, mAb captured, 37 C
# Method: as §2
# hPDGFRb.mmh [9] = target: T2, hPDGFRb.mmh; assay: SPR, mAb captured, 37 C
# Method: as §2
# human PDGFRb.hFc [10] = target: T3, human PDGFRb.hFc; assay: SPR, mAb captured, 37 C
# Method: as §2
# hPDGFRb.mmh [11] = target: T2, hPDGFRb.mmh; assay: Octet BLI cross-competition, 25 C; hPDGFRb.mmh on anti-Penta-His tips pre-saturated with mAb-1 H4H3365N (row 2)
# In short: as §1
# hPDGFRb.mmh [12] = target: T2, hPDGFRb.mmh; assay: Octet BLI cross-competition, 25 C; hPDGFRb.mmh on anti-Penta-His tips pre-saturated with mAb-1 H4H3103S (row 4)
# Method: as §3
# hPDGFRb.mmh [13] = target: T2, hPDGFRb.mmh; assay: Octet BLI cross-competition, 25 C; hPDGFRb.mmh on anti-Penta-His tips pre-saturated with mAb-1 H4H3107S (row 7)
# In short: as §1
# hPDGFRb.mmh [14] = target: T2, hPDGFRb.mmh; assay: Octet BLI cross-competition, 25 C; hPDGFRb.mmh on anti-Penta-His tips pre-saturated with mAb-1 H4H3099S (row 6)
# In short: as §1
# hPDGFRb.mmh [15] = target: T2, hPDGFRb.mmh; assay: Octet BLI cross-competition, 25 C; hPDGFRb.mmh on anti-Penta-His tips pre-saturated with mAb-1 H4H3374N (row 3)
# In short: as §1
Binder,Kd [2],koff [2],kon [2],t1/2 [2],Kd (hPDGFRb.mmh [3]),koff (hPDGFRb.mmh [3]),kon (hPDGFRb.mmh [3]),t1/2 (hPDGFRb.mmh [3]),Kd (human PDGFRb.hFc [4]),koff (human PDGFRb.hFc [4]),kon (human PDGFRb.hFc [4]),t1/2 (human PDGFRb.hFc [4]),Percent Internalization (Relative to Control I) [6],"IC50, blocking PDGF-BB (250 pM) activation, SRE-luciferase [7]","IC50, blocking PDGF-DD (400 pM) activation, SRE-luciferase [7]",Kd [8],koff [8],kon [8],t1/2 [8],Kd (hPDGFRb.mmh [9]),also measured
B1,1.66 nM,0.000472 s⁻¹,284000 M⁻¹ s⁻¹,24 min,1.26 nM,0.000358 s⁻¹,283000 M⁻¹ s⁻¹,32 min,0.148 nM,8.93e-05 s⁻¹,600000 M⁻¹ s⁻¹,129 min,81%,1.3e-10 M,1.5e-10 M,2.63 nM,0.00177 s⁻¹,670000 M⁻¹ s⁻¹,7 min,1.84 nM,Response of mAb-2 Binding to hPDGFRβ.mmh Pre-Complexed with mAb-1 (nm) (hPDGFRb.mmh [1]): 0 nm; Response of mAb-2 Binding to hPDGFRβ.mmh Pre-Complexed with mAb-1 (nm) (hPDGFRb.mmh [5]): 0.26 nm; koff (hPDGFRb.mmh [9]): 0.00126 s⁻¹; kon (hPDGFRb.mmh [9]): 685000 M⁻¹ s⁻¹; t1/2 (hPDGFRb.mmh [9]): 9 min; Kd (human PDGFRb.hFc [10]): 0.178 nM; koff (human PDGFRb.hFc [10]): 0.000291 s⁻¹; kon (human PDGFRb.hFc [10]): 1.63e+06 M⁻¹ s⁻¹; t1/2 (human PDGFRb.hFc [10]): 40 min; Response of mAb-2 Binding to hPDGFRβ.mmh Pre-Complexed with mAb-1 (nm) (hPDGFRb.mmh [11]): 0.01 nm; Response of mAb-2 Binding to hPDGFRβ.mmh Pre-Complexed with mAb-1 (nm) (hPDGFRb.mmh [12]): 0.02 nm; Response of mAb-2 Binding to hPDGFRβ.mmh Pre-Complexed with mAb-1 (nm) (hPDGFRb.mmh [13]): 0.24 nm; Response of mAb-2 Binding to hPDGFRβ.mmh Pre-Complexed with mAb-1 (nm) (hPDGFRb.mmh [14]): 0.27 nm
B2,1.63 nM,0.000289 s⁻¹,177000 M⁻¹ s⁻¹,40 min,1.56 nM,0.000257 s⁻¹,165000 M⁻¹ s⁻¹,45 min,0.256 nM,6.2e-05 s⁻¹,242000 M⁻¹ s⁻¹,186 min,77%,4e-10 M,3.9e-10 M,6.69 nM,0.0017 s⁻¹,253000 M⁻¹ s⁻¹,7 min,6.58 nM,Response of mAb-2 Binding to hPDGFRβ.mmh Pre-Complexed with mAb-1 (nm) (hPDGFRb.mmh [5]): 0.25 nm; Response of mAb-2 Binding to hPDGFRβ.mmh Pre-Complexed with mAb-1 (nm) (hPDGFRb.mmh [15]): 0.02 nm; koff (hPDGFRb.mmh [9]): 0.00147 s⁻¹; kon (hPDGFRb.mmh [9]): 223000 M⁻¹ s⁻¹; t1/2 (hPDGFRb.mmh [9]): 8 min; Kd (human PDGFRb.hFc [10]): 0.877 nM; koff (human PDGFRb.hFc [10]): 0.000248 s⁻¹; kon (human PDGFRb.hFc [10]): 283000 M⁻¹ s⁻¹; t1/2 (human PDGFRb.hFc [10]): 47 min; Response of mAb-2 Binding to hPDGFRβ.mmh Pre-Complexed with mAb-1 (nm) (hPDGFRb.mmh [12]): 0.02 nm; Response of mAb-2 Binding to hPDGFRβ.mmh Pre-Complexed with mAb-1 (nm) (hPDGFRb.mmh [13]): 0.23 nm; Response of mAb-2 Binding to hPDGFRβ.mmh Pre-Complexed with mAb-1 (nm) (hPDGFRb.mmh [14]): 0.25 nm
B3,0.987 nM,0.000164 s⁻¹,166000 M⁻¹ s⁻¹,71 min,1.16 nM,0.000169 s⁻¹,145000 M⁻¹ s⁻¹,68 min,0.23 nM,5.48e-05 s⁻¹,238000 M⁻¹ s⁻¹,211 min,88%,2.1e-10 M,1.9e-10 M,2.17 nM,0.000652 s⁻¹,300000 M⁻¹ s⁻¹,18 min,2.39 nM,Response of mAb-2 Binding to hPDGFRβ.mmh Pre-Complexed with mAb-1 (nm) (hPDGFRb.mmh [1]): 0.35 nm; Response of mAb-2 Binding to hPDGFRβ.mmh Pre-Complexed with mAb-1 (nm) (hPDGFRb.mmh [15]): 0.31 nm; koff (hPDGFRb.mmh [9]): 0.000639 s⁻¹; kon (hPDGFRb.mmh [9]): 267000 M⁻¹ s⁻¹; t1/2 (hPDGFRb.mmh [9]): 18 min; Kd (human PDGFRb.hFc [10]): 0.193 nM; koff (human PDGFRb.hFc [10]): 0.000105 s⁻¹; kon (human PDGFRb.hFc [10]): 540000 M⁻¹ s⁻¹; t1/2 (human PDGFRb.hFc [10]): 110 min; Response of mAb-2 Binding to hPDGFRβ.mmh Pre-Complexed with mAb-1 (nm) (hPDGFRb.mmh [11]): 0.33 nm; Response of mAb-2 Binding to hPDGFRβ.mmh Pre-Complexed with mAb-1 (nm) (hPDGFRb.mmh [12]): 0.34 nm
